Holding throughout (assay type): cell-based, Staphylococcus aureus
Experiment [1] relates to β-lactamase induction in S. aureus SHY97-4320. The experiment is described as follows: Induction of β-lactamase after LF pre-incubation (signal transduction). The settings on record: LF 1 mg/ml added 30 or 60 min before 8 μg/ml penicillin G, 4 h. The method, then:
As the β-lactamase system is the best-known signal transduction system in S. aureus. We tested the ability of LF to inhibit signal transduction in S. aureus SHY97-4320 which is an inducible beta-lactamase producing strain. Bacterial cells were first exposed during 30 or 60 min to LF in broth and were further treated with 8 μg/ml of penicillin G for an additional 4 h. The cfu/ml were determined, cells aliquots were centrifuged and pellets were suspended in 10 mM HEPES buffer (pH 7.4) as mentioned above. Nitrocefin (100 μM) was added to 20 μl of cells in a final volume of 200 μl. Hydrolysis was measured at 486 nm on a Spectra Max 250 Microplate Spectrophotometer System of Molecular Device (Fisher Scientific, Ottawa, Canada). β-Lactamase activity was expressed as ΔO.D.486 nm/min and corrected for bacterial OD.

Experiment [2] relates to S. aureus strains ATCC 25923, SHY97-3906, −4242 and RFT-5. The experiment is described as follows: Bacterial growth in MHB. As to conditions: LF alone, sub-MIC (9.1, 36.6, 250 or 500 μg/ml); 4, 8 and 18-h; except for strain SHY97-3906. The method, then: (§1) The effect of LF or LFC at concentration sub-MICs alone or in combination with sub-MICs of antibiotics on bacterial growth rate of S. aureus, E. coli and K. pneumoniae was determined by monitoring bacterial cultures in MHB with the O.D.600 nm or by the count of colony forming unit per ml (cfu/ml). A volume of 2.5 ml of overnight cultures in MHB adjusted to 0.5-1 McFarland standard in saline were used to inoculate a final volume of 25 ml of fresh MHB containing the desired concentration of tested compounds. All flasks were then incubated at 37° C. with agitation (200 rpm) for 9 h. Aliquots were removed every hour to determine the culture turbidity using the spectrophotometer Philips PU 8800 (Pye Unican Ltd, Cambridge, UK). The combined antibiotic effect on bacterial growth was also determined using concentrations of LF in the presence of different concentrations of antibiotics. Briefly, a volume of 3 ml of fresh MHB containing desired concentration of drugs was adjusted to an optical density of 0.4 at 540 nm after an overnight culture. The culture was then incubated at 37° C with agitation (200 rpm). After incubation, aliquots were removed to determine the culture turbidity (OD540nm) or cfu/ml. To determine the influence of the level of iron on of the growth inhibition by the test compound, 5 μM of FeCl3 were added to the media.

Another experiment has as its system S. aureus PC-1. As to the kind of experiment: Bacterial growth in MHB. As to conditions: LF or LFC alone, sub-MIC. The method, then:
as §1

A further experiment deals with S. aureus ATCC 25923. As to the kind of experiment: Bacterial growth in MHB. As to conditions: LF alone, sub-MIC. The method, then: as §1
A further experiment relates to S. aureus strains. The experiment is described as follows: MIC / FIC determination, summary over strains. The settings on record: strains of Table 1. The source says:
Staphylococcus aureus strains ATCC 25923 and 6538 and Escherichia coli ATCC 25922 were obtained from the American Type Culture Collection. Eight bovine mastitis clinical isolates of S. aureus (SHY97-3906, -3923, -4085 -4242, -4320 and -4343, RFT-1 and RFT-5) and one isolate of E. coli SHY97-3923-2 and one isolate of Kiebsiella pneumoniae SHY99-723-1 were kindly provided by the Laboratoire Provincial de Pathologie Animale of St-Hyacinthe and of Rock-Forest (Quebec, Canada), respectively. Nine β-lactam antibiotics resistant S. aureus strains (PC-1, NCTC 9789, 2076, 22260, ST79/741, 3804, RN9, FAR8, and FAR10) were obtained from Vanderbilt University School of Medicine (Nashville, Tenn., USA). […]
The MICs were determined by both macrodilution (1 ml/tube) and microdilution (100 μl/well) in sterile 96 well microtiter plates (International Nunc, Napierville, Ill.) techniques in three separate experiments according to the National Committee for Clinical Laboratory Standards (1992 and 1999) in three separate experiments. […] Effect of LF combination with antibiotic on MICs were determined by adding 0.5 mg or 1 mg/ml of LF to each antibiotic dilution. […] Effect of LF or LFC combination with antibiotic on MIC was also determined by checkerboard method using 96 well microtiter plates. […] The fractional inhibitory concentration (FIC) was calculated as described by Eliopoulos and Moellering (1991). […]

B1: LF: bovine lactoferrin, 80-kDa iron-binding glycoprotein found in milk (protein, UniProt P24627 20-708, looked up)
Lactotransferrin: APRKNVRWCTISQPEWFKCRRWQWRMKKLGAPSITCVRRAFALECIRAIAEKKADAVTLDGGMVFEAGRDPYKLRPVAAEIYGTKESPQTHYYAVAVVKKGSNFQLDQLQGRKSCHTGLGRSAGWIIPMGILRPYLSWTESLEPLQGAVAKFFSASCVPCIDRQAYPNLCQLCKGEGENQCACSSREPYFGYSGAFKCLQDGAGDVAFVKETTVFENLPEKADRDQYELLCLNNSRAPVDAFKECHLAQVPSHAVVARSVDGKEDLIWKLLSKAQEKFGKNKSRSFQLFGSPPGQRDLLFKDSALGFLRIPSKVDSALYLGSRYLTTLKNLRETAEEVKARYTRVVWCAVGPEEQKKCQQWSQQSGQNVTCATASTTDDCIVLVLKGEADALNLDGGYIYTAGKCGLVPVLAENRKSSKHSSLDCVLRPTEGYLAVAVVKKANEGLTWNSLKDKKSCHTAVDRTAGWNIPMGLIVNQTGSCAFDEFFSQSCAPGADPKSRLCALCAGDDQGLDKCVPNSKEKYYGYTGAFRCLAEDVGDVAFVKNDTVWENTNGESTADWAKNLNREDFRLLCLDGTRKPVTEAQSCHLAVAPNHAVVSRSDRAAHVKQVLLHQQALFGKNGKNCPDKFCLFKSETKNLLFNDNTECLAKLGGRPTYEEYLGTEYVTAIANLKKCSTSPLLEACAFLTR
On to B1, for which, in experiment [1], the “induction of β-lactamase by penicillin G” value is recorded as “completely block induction of β-lactamase”. The growth entry in experiment [2] is listed as “did not affect the growth”; in the experiment on S. aureus PC-1, “delayed growth”; in the experiment on S. aureus ATCC 25923 it was “delayed growth”. In the experiment with S. aureus strains, the “MICs of lactoferrin alone” value is reported as “greater than 25 mg/ml”.

The values above are taken from patent publication US20030134779A1, “Method and composition for treatment and/or prevention of antibiotic-resistant microorganism infections” (priority 2002, published 2003).
